{"source": "patent US20250136678A1", "about": "(BIOSION, published 2025)", "key": {"[1]": {"biological_target": "T1, human CLDN18.2 (NP_001002026.1) (human, UniProt P56856-2 1-261)", "T1 construct": "whole, on cells; KATO III cells also served as target cells in the ADCC assay; also called Claudin18.2; Claudin-18 splice variant 2", "test": "cell-based binding FACS on BAF3-CLDN18.2 cells, MFI against Con of mAb, nM is the unit of the x axis; low curve reaching only MFI about 300-400 at the last point", "experimental": "(§1) The BAF3-CLDN18.2, BAF3-CLDN18.1 and BAF3 cells were harvested, washed twice and re-suspended in phosphate buffered saline (PBS) containing 2% v/v Fetal Bovine Serum (FACS buffer), BAF3 cells were used here as blank control. The cells, 1×10⁵ per well, were incubated in 96 well-plates with 100 μl serially diluted antibodies or controls (starting from 10 μg/mL, 5-fold serial dilution) in FACS buffer for 50 minutes on ice. […] Following an incubation of 50 minutes at 4° C. in dark, cells were washed three times and re-suspended in FACS buffer. Fluorescence was measured using a Becton Dickinson FACS Canto II-HTS equipment, and the MFI (mean fluorescence intensity) was plotted against antibody concentration. Data was analyzed using Graphpad Prism and EC₅₀ values were reported."}, "[2]": {"biological_target": "T1, human CLDN18.2 (NP_001002026.1)", "test": "cell-based blocking FACS on BAF3-CLDN18.2 cells; unlabeled Zolbetuximab against biotin labeled Zolbetuximab, SA-PE detection, nM is the unit of the x axis; signal falls only from about 870 to about 600 at the last point, no lower plateau is reached", "experimental": "The anti-CLDN18.2 antibodies of the disclosure, and the controls were diluted with FACS buffer starting from 10 μg/mL with 5-fold serial dilution. BAF3-CLDN18.2 cells were harvested from cell culture flasks at the log phase, washed twice and re-suspended in PBS containing 2% v/v Fetal Bovine Serum (FACS buffer). […] Then the cells were washed twice with FACS buffer, added with 100 μl/well SA-PE (1:200 dilution in FACS buffer, Cat #:016-110-084, Jackson Immunoresearch), and incubated for 40 minutes at 4° C. in dark. Cells were washed twice and re-suspended in FACS buffer. Fluorescence was measured using a Becton Dickinson FACS Canto II-HTS equipment. Data was analyzed using Graphpad Prism and IC₅₀ values were reported."}, "[3]": {"biological_target": "T1, human CLDN18.2 (NP_001002026.1)", "test": "cell-based binding FACS on BAF3-CLDN18.2 cells; y axis unlabelled, nM is the unit of the x axis; the curve reaches only about 800 at the last point", "experimental": "as §1"}, "[4]": {"biological_target": "T1, human CLDN18.2 (NP_001002026.1)", "test": "cell-based binding FACS on BAF3-CLDN18.2 cells, MFI against Con of mAb, nM is the unit of the x axis; the curve levels off near MFI 600", "experimental": "as §1"}, "[5]": {"biological_target": "T1, human CLDN18.2 (NP_001002026.1)", "test": "cell-based binding FACS on BAF3-CLDN18.2 cells, MFI against Con of mAb, nM is the unit of the x axis; low curve (open down-triangles) reaching only MFI about 400-500", "experimental": "as §1"}}, "data": [{"binder": "Zolbetuximab (antibody, human IgG1, kappa, V domains shown, also called IMAB362; Benchmark) VH: QVQLQQPGAELVRPGASVKLSCKASGYTFTSYWINWVKQRPGQGLEWIGNIYPSDSYTNYNQKFKDKATLTVDKSSSTAYMQLSSPTSEDSAVYYCTRSWRGNSFDYWGQGTTLTVSS VL: DIVMTQSPSSLTVTAGEKVTMSCKSSQSLLNSGNQKNYLTWYQQKPGQPPKLLIYWASTRESGVPDRFTGSGSGTDFTLTISSVQAEDLAVYYCQNDYSYPFTFGSGTKLEIKR", "values": [{"measurement": "EC50", "setting": "[1]", "value": 5.48, "unit": "nM"}, {"measurement": "IC50", "setting": "[2]", "value": 17.3, "unit": "nM"}, {"measurement": "EC50", "setting": "[3]", "value": 11, "unit": "nM"}, {"measurement": "EC50", "setting": "[4]", "value": 2.44, "unit": "nM"}, {"measurement": "EC50", "setting": "[5]", "value": 4.67, "unit": "nM"}]}]}
